# Assay results as given in US20030195151A1.
# Columns and labels:
# [1] = target: endoxylanase M6 from a rumen microorganism culture filtrate, Megazyme; test: cell-based or functional assay
# [2] = target: endoxylanase M4 from Aspergillus niger (family 11), Megazyme (Aspergillus niger); test: cell-based or functional assay
# [3] = target: endoxylanase M1 from Trichoderma viride (family 11), Megazyme (Trichoderma viride); test: cell-based or functional assay
# [4] = target: endoxylanase from Bacillus subtilis (family 11), NV Puratos (Bacillus subtilis) (UniProt P18429); test: cell-based or functional assay
# [5] = target: mixture of ‘TAXI’-like endoxylanase inhibitors obtained after the affinity purification step of example 3, immobilised on NHS-activated Sepharose 4 Fast Flow; test: affinity chromatography on immobilised ‘TAXI’-like endoxylanase inhibitors, activity by Xylazyme-AX method
# Sequence of endoxylanase M4 from Aspergillus niger (family 11), Megazyme (Aspergillus niger) (P55329 28-211): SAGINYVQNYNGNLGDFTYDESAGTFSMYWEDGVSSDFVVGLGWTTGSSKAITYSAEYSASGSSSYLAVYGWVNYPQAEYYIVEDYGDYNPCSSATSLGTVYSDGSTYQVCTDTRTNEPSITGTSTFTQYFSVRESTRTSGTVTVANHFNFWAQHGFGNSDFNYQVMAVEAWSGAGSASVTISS
# Sequence of endoxylanase of A. niger, var. awamori (Quest International enzyme preparation) (P55328 28-211): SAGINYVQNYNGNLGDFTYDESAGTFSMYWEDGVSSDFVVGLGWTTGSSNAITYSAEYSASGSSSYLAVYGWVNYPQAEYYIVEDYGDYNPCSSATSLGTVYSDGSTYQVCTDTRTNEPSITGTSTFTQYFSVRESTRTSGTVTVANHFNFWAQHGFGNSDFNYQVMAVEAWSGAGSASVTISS
maximum of inhibition of endoxylanase activity (Xylazyme-AX method) [1],maximum of inhibition of endoxylanase activity (Xylazyme-AX method) [3],maximum of inhibition of endoxylanase activity (Xylazyme-AX method) [4],endoxylanase inhibition activity of periplasmic protein fraction (Xylazyme-AX method) [2],endoxylanase inhibition activity of periplasmic protein fraction (Xylazyme-AX method) [4],Substance,also measured
15%,> 95%,92%,,,HvXI (Hordeum vulgare L. endoxylanase inhibitor),level of inhibitor that reduces the endoxylanase activity with 50% (Xylazyme-AX method) [2]: 0.13 µg; maximum of inhibition of endoxylanase activity (Xylazyme-AX method) [2]: > 95%; level of inhibitor that reduces the endoxylanase activity with 50% (Xylazyme-AX method) [3]: 0.08 µg; level of inhibitor that reduces the endoxylanase activity with 50% (Xylazyme-AX method) [4]: 0.27 µg
,,,99%,88%,MBP (maltose binding protein)-TAXI fusion protein expressed by the pMAL-p2X-TAXI plasmid,
8%,> 90%,77%,,,TAXI II (Triticum aestivum L. endoxylanase inhibitor II),quantity of inhibitor that reduces the endoxylanase activity with 50% (Xylazyme-AX method) [3]: 0.07 µg; maximum of inhibition as a function of inhibitor quantity [4]: 80%; quantity of inhibitor that reduces the endoxylanase activity with 50% (Xylazyme-AX method) [4]: 0.28 µg
,,,,,"endoxylanase of A. niger, var. awamori (Quest International enzyme preparation)",endoxylanase activity retained on the affinity column [5]: 94%
,,,96%,81%,recombinant TAXI protein expressed by the pHOS31-TAXI plasmid,
